Test results reported in patent US20190040368.

Biological target: T1, recombinant human iduronate-2 sulfatase (rhIDS)
T1 chain: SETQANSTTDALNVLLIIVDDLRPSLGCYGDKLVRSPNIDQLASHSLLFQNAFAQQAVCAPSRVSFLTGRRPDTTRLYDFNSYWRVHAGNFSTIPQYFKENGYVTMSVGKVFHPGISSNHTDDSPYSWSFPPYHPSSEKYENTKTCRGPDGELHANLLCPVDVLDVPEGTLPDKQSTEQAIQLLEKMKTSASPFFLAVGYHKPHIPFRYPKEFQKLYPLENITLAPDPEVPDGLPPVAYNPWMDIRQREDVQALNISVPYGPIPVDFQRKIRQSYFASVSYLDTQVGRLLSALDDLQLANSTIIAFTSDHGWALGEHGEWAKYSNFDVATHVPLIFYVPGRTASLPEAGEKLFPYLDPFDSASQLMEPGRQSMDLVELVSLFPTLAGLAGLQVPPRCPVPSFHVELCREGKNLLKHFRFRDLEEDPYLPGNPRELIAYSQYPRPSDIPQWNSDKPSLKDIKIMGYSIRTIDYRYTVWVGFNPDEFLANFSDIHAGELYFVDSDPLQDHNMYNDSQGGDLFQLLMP

B1: Gallus gallus Lip2-GgFGE-His6-HDEL fusion construct (protein)
chain: GKETAPGGNCGCSASRSRGGEREAVATVRRYSAAANDGRSSGRGPMVAIPGGVFTMGTDEPEIQQDGEWPARRVHVNSFYMDQYEVSNQEFERFVNSTGYLTEAEKFGDSFVFEGMLSEEVKAEIHQAVAAAPWWLPVKGANWRQPEGPGSSILSRMDHPVLHVSWNDAVAFCTWAGKRLPTEAEWEYGCRGGLEKRLFPWGNKLQPKGQHYANIWQGVFPTNNTAEDGYKGTAPVTAFPPNGYGLYNIVGNAWEWTSDWWAVHHSADEAHNPKGPSSGTDRVKKGGSYMCHKSYCYRYRCAARSQNTPDSSASNLGFRCAADALPDPQHHHHHHHDEL
Work on B1 yielded a % activity of rhIDS; co-expression with GgFGE of 33%.

B2: Lip2pre-6xHis-BtFGE-WBP1 fusion construct (protein)
chain: MKLSTILFTACATLAAAHHHHHHAGGEEAGPEAGAPSLVGSCGCGNPQRPGAQGSSAAAHRYSREANAPGSVPGGRPSPPTKMVPIPAGVFTMGTDDPQIKQDGEAPARRVAIDAFYMDAYEVSNAEFEKFVNSTGYLTEAEKFGDSFVFEGMLSEQVKSDIQQAVAAAPWWLPVKGANWRHPEGPDSTVLHRPDHPVLHVSWNDAVAYCTWAGKRLPTEAEWEYSCRGGLQNRLFPWGNKLQPKGQHYANIWQGEFPVTNTGEDGFRGTAPVDAFPPNGYGLYNIVGNAWEWTSDWWTVHHSAEETINPKGPPSGKDRVKKGGSYMCHKSYCYRYRCAARSQNTPDSSASNLGFRCAADHLPTTGADHLPTTGFTMLNPYYRLTLEQTGTTNFSAIYSTTFKIPDQHGVFTFNLDYKRPGYTFIEEKTRATIRHTANDEWPRSWEITNSWVYLTSAVMVVIAWFLFVVFYLFVGKADKEAVHKQ
For B2, the % active rhIDS (4MU activity against ELISA); 1 copy rhIDS, 2 copy BtFGE-WBPI (POX/Hp4d) was 124%.

B3: Tupaia chinensis Lip2-TupFGE-His6-HDEL fusion construct (protein)
chain: EEARTGAGATSAQGPCGCGTPQRPGSHGSSAAAHRYSREANVPGPVPGERQPEATKMVPIPAGVFTMGTDDPQIKQDGEAPARRVAIDAFYMDAYEVSNAEFEKFVNSTGYLTEAEKFGDSFVFEGMLSEQVKTGIQQAVAAAPWWLPVKGANWRHPEGPDSTILHRADHPVLHVSWNDAVAYCTWAGKRLPTEAEWEYSCRGGLQNRLFPWGNKLQPRGQHYANIWQGEFPVTNTAEDGFQGTAPVDAFPPNGYGLYNIVGNAWEWTSDWWTVYHSVEETLNPKGPPSGKDRVKKGGSYMCHKSYCYRYRCAARSQNTPDSSASNLGFRCAADRLPTHHHHHHHDEL
With B3 the % activity of rhIDS; co-expression with TupFGE was 51%.

B4: Monodelphis domestica Lip2-MdFGE-His6-HDEL fusion construct (protein)
chain: AARGLGSEAGSAAADAAHPAGTCGCGSPQRPGTAAHRYSREANVAEPASAERPVLTSQMAHIPAGVFTMGTDEPQIKQDGEGPARRVRINSFYMDLYEVSNAEFERFVNSTGYVTEAEKFGDSFVFDSMLSDQVKSDIHQAVAAAPWWLPVKGANWRHPEGPDSSILHRRDHPVLHVSWNDAVAYCTWAGKRLPTEAEWEYSCRGGLENRLFPWGNKLQPKGQHYANIWQGEFPVSNTGEDGYQGTAPVTAFPPNGYGLYNIVGNAWEWTSDWWTVHHSADETLDPKGPPSGSDRVKKGGSYMCHKSYCYRYRCAARSQNTPDSSASNLGFRCAADRLPDTHHHHHHHDEL
B4 showed a % activity of rhIDS; co-expression with MdFGE of 58%.

B5: Columba livia Lip2-C1FGE-His6-HDEL fusion construct (protein)
chain: MVVIPGGVFTMGTDEPAIQQDGEWPVRKVHVNSFYMDRYEVSNEDFERFVNSTGYVTEAEKFGDSFVFEGMLSEEVKAEIHQAVAAAPWWLPVKGANWKHPEGPDSNISNRMDHPVLHVSWNDAVAFCTWAGKRLPTEAEWEYSCRGGLENRLFPWGNKLQPKGQHYANIWQGVFPTNNTAEDGYKGTAPVTAFPPNGYGLYNIVGNAWEWTADWWAVHHSTEEVHNPKGPSSGTDRVKKGGSYMCHKSYCYRYRCAARSQNTPDSSASNLGFRCAADASPELPHHHHHHHDEL
With B5 the % activity of rhIDS; co-expression with ClFGE was 61%.

B6: MNS1-BtFGE-6xHis fusion construct (protein)
chain: MSFNIPKTTPNFSAKARKLEDQLWQASGLEKSKDSTLPLYKDKPYGEGFVARTTSGRRRRNIIYGVVVGLLFWAIYTFSRSLDGNVSLKDGIKDYEFKGWKGRGKPKTNWVAEQNAVKQAFVDSWNGYHKYAWGKDVYKPQTKTGKNMGPKPLGWFIVDSLDSGGEEAGPEAGAPSLVGSCGCGNPQRPGAQGSSAAAHRYSREANAPGSVPGGRPSPPTKMVPIPAGVFTMGTDDPQIKQDGEAPARRVAIDAFYMDAYEVSNAEFEKFVNSTGYLTEAEKFGDSFVFEGMLSEQVKSDIQQAVAAAPWWLPVKGANWRHPEGPDSTVLHRPDHPVLHVSWNDAVAYCTWAGKRLPTEAEWEYSCRGGLQNRLFPWGNKLQPKGQHYANIWQGEFPVTNTGEDGFRGTAPVDAFPPNGYGLYNIVGNAWEWTSDWWTVHHSAEETINPKGPPSGKDRVKKGGSYMCHKSYCYRYRCAARSQNTPDSSASNLGFRCAADHLPTTGADHLPTTGHHHHHH
In the case of B6, the “% FGly conversion; one copy of rhIDS and 2 copies of BtFGE-MNS1” value is reported as 100% FGly conversion, the % active rhIDS (4MU activity against ELISA); 1 copy rhIDS, 2 copy BtFGE-MNS1 (POX/Hp4d) is reported as 98% and the “% activity of rhIDS; one copy of rhIDS and 2 copies of BtFGE-MNS1” value is reported as 81.5% activity.

B7: Hemicentrotus pulcherrimus FGE fusion protein (Lip2pre-HpFGE-6HIS-HDEL) (protein)
chain: ENEDINQNISPTQSHTTATTEEELAEARGEEIDSDPTSEGSGAGEGCGCGSSALNRNHDEDALGLALEENLHDHVQEGAALKYSREANDPISMDHPEANVGAFPRTNQMNFIEGGTFRMGTDKAKIYLDGESPSRLVTLDPYYFDVYEVSNSEFELFVNTTSYITEAEKFGDSFVLEARISEEVKKDISQVVAAAPWWLPVKGAEWRHPEGPDSSISSRMDHPVTHISWNDATAYCQWAGKRLPTEAEWENAARGGLNNRLFPWGNKLMPKDHHRVNIWQGEFPKVNTAEDGYEGTCPVTAFEPNGYGLYNTVGNAWEWVADWWTTVHSPESQNNPVGPDEGTDKVKKGGSYMCHISYCYRYRCEARSQNSPDSSACNLGFRCAATNLPEDIPCSNCNDSTPHHHHHHHDEL
In the case of B7, the % FGly conversion (nano-LC MS); strain T148 (OXYY1801; HpFGE) is reported as 8.1%, the % FGly conversion (nano-LC MS); strain T148 (OXYY1801; HpFGE) (20° C.) is reported as 68.1% and the % FGly conversion (nano-LC MS); strain T148 (OXYY1801; HpFGE), duplicate is reported as 3.72%. For the same protein, the % FGly conversion-re-analyzed samples; DG29U7#7, OXYY1801; HpFGE was 19.2%, the % FGly conversion-re-analyzed samples; DG33U1#6, OXYY1801, HpFGE was 8.3% and the % FGly conversion-re-analyzed samples; DG33U3#6, OXYY1801; HpFGE (20° C.) was 84.5%. For the same protein, the “active rhIDS (4MU fluorogenic activity assay against sandwich ELISA), co-expression in Y. lipolytica” value (“active rhIDS … in Y. lipolytica” below) was “All Y. lipolytica strains co-expressing rFGE with rhIDS resulted in the expression of active rhIDS”.

B8: Human FGE fusion protein (Lip2pre-hFGE-HDEL) (protein)
chain: SQEAGTGAGAGSLAGSCGCGTPQRPGAHGSSAAAHRYSREANAPGPVPGERQLAHSKMVPIPAGVFTMGTDDPQIKQDGEAPARRVTIDAFYMDAYEVSNTEFEKFVNSTGYLTEAEKFGDSFVFEGMLSEQVKTNIQQAVAAAPWWLPVKGANWRHPEGPDSTILHRPDHPVLHVSWNDAVAYCTWAGKRLPTEAEWEYSCRGGLHNRLFPWGNKLQPKGQHYANIWQGEFPVTNTGEDGFQGTAPVDAFPPNGYGLYNIVGNAWEWTSDWWTVHHSVEETLNPKGPPSGKDRVKKGGSYMCHRSYCYRYRCAARSQNTPDSSASNLGFRCAADRLPTMDHDEL
B8 was tested, and the “active rhIDS … in Y. lipolytica” value was “All Y. lipolytica strains co-expressing rFGE with rhIDS resulted in the expression of active rhIDS”.

B9: Streptomyces coelicolor FGE fusion protein (Lip2pre-ScFGE-6HIS-HDEL) (protein)
chain: MAVAAPSPAAAAEPGPAARPRSTRGQVRLPGGEFAMGDAFGEGYPADGETPVHTVRLRPFHIDETAVTNARFAAFVKATGHVTDAERFGSSAVFHLVVAAPDADVLGSAAGAPWWINVRGAHWRRPEGARSDITGRPNHPVVHVSWNDATAYARWAGKRLPTEAEWEYAARGGLAGRRYAWGDELTPGGRWRCNIWQGRFPHVNTAEDGHLSTAPVKSYRPNGHGLWNTAGNVWEWCSDWFSPTYYAESPTVDPHGPGTGAARVLRGGSYLCHDSYCNRYRVAARSSNTPDSSSGNLGFRCANDADLTSGSAAEHHHHHHHDEL
In the case of B9, the “active rhIDS … in Y. lipolytica” value is reported as “All Y. lipolytica strains co-expressing rFGE with rhIDS resulted in the expression of active rhIDS”.

B10: Chimeric Lip2pre-BtFGE-HpFGE-6xHis-HDEL fusion construct (protein)
chain: MKLSTILFTACATLAAAAGGEEAGPEAGAPSLVGSCGCGNPQRPGAQGSSAAAHRYSREANAPGSVPGGRPSPPTKMVPIPAGVFTMGTDKAKIYLDGESPSRLVTLDPYYFDVYEVSNSEFELFVNTTSYITEAEKFGDSFVLEARISEEVKKDISQVVAAAPWWLPVKGAEWRHPEGPDSSISSRMDHPVTHISWNDATAYCQWAGKRLPTEAEWENAARGGLNNRLFPWGNKLMPKDHHRVNIWQGEFPKVNTAEDGYEGTCPVTAFEPNGYGLYNTVGNAWEWVADWWTTVHSPESQNNPVGPDEGTDKVKKGGSYMCHISYCYRYRCEARSQNSPDSSACNLGFRCAATNLPEDIPCSNCNDSTPHHHHHHHDEL
In the case of B10, the % active rhIDS (4MU activity against ELISA); 1 copy rhIDS, 2 copy ChFGE (POX/Hp4d)-20° C. is reported as 0% and the % active rhIDS (4MU activity against ELISA); 1 copy rhIDS, 2 copy ChFGE (POX/Hp4d)-28° C. is reported as 0%.
